# Patent US20240043563A1
# Legend:
# [1] = molecular target: cynomolgus monkey MASP-2 of cynomolgus monkey serum (cynomolgus monkey); experiment: cell-based or functional assay
# [2] = molecular target: Fc-hMASP-2A-CCS (human) [IgG part: P01857]; experiment: ELISA according to Example 5, plate coated with Fc-hMASP-2A-CCS
# Chain of Fc-hMASP-2A-CCS (human) [IgG part: P01857] (P01857 other isoform, or with tags, fused parts or gaps limits assumed, form in doubt): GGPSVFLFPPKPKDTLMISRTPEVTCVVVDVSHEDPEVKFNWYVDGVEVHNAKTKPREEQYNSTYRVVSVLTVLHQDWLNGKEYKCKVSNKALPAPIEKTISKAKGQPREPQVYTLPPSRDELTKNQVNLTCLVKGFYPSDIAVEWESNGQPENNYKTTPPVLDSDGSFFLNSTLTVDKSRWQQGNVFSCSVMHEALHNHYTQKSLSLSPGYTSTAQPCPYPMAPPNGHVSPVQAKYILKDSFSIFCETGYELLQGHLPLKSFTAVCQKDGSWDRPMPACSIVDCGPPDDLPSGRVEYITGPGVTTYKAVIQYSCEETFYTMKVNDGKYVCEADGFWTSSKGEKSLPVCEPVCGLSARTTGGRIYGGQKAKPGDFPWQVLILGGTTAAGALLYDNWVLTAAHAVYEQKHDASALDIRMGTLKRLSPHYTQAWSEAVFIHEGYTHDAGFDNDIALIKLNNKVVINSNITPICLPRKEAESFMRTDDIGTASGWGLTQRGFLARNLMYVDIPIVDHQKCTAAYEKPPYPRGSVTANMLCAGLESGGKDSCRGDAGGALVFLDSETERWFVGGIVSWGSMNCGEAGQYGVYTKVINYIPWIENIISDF
substance,measurement,setting,value
Narsoplimab (antibody),IC50 of inhibition of MASP-2-catalyzed C4 cleavage in 90% cynomolgus monkey serum,[1],94 nM
same,EC50,[2],0.227 nM
